Assay results published in article PMC3737171, “Genetic Selection for Constitutively Trimerized Human HSF1 Mutants Identifies a Role for Coiled-Coil Motifs in DNA Binding” (G3: Genes|Genomes|Genetics, 2013).
Changes are numbered by the printed parent chain. Numbers in names are those of the source.

B1: human HSF1 M161I, expressed in yeast (natural protein, UniProt Q00613 1-529, looked up)
chain: MDLPVGPGAAGPSNVPAFLTKLWTLVSDPDTDALICWSPSGNSFHVFDQGQFAKEVLPKYFKHNNMASFVRQLNMYGFRKVVHIEQGGLVKPERDDTEFQHPCFLRGQEQLLENIKRKVTSVSTLKSEDIKIRQDSVTKLLTDVQLMKGKQECMDSKLLAIKHENEALWREVASLRQKHAQQQKVVNKLIQFLISLVQSNRILGVKRKIPLMLNDSGSAHSMPKYSRQFSLEHVHGSGPYSAPSPAYSSSSLYAPDAVASSGPIISDITELAPASPMASPGGSIDERPLSSSPLVRVKEEPPSPPQSPRVEEASPGRPSSVDTLLSPTALIDSILRESEPAPASVTALTDARGHTDTEGRPPSPPPTSTPEKCLSVACLDKNELSDHLDAMDSNLDNLQTMLSSHGFSVDTSALLDLFSPSVTVPDMSLPDLDSSLASIQELLSPQEPPRPPEAENSSPDSGKQLVHYTAQPLFLLDPGSVDTGSNDLPVLFELGEGSYFSEGDGFAEDPTISLLTGSEPPKAKDPTVS
notes: human heat shock transcription factor 1 (HSF1) with M161I in LZ1-3; Found by random mutagenesis in E. coli XL-1 Red; also called M161I mutant; source: S. cerevisiae PS145, mutant of plasmid pRS423GPD-hHSF1, in total protein extract
B2: human HSF1 L402P, expressed in hsf1-/- mouse embryonic fibroblasts (natural protein, UniProt Q00613 1-529, looked up)
chain: B1 chain with I161M, L402P
notes: human heat shock transcription factor 1 (HSF1) with L402P in LZ4; also called L402P mutant; source: hsf1-/- MEFs, transfected, in protein extract
B3: human HSF1 L402P, expressed in yeast (natural protein, UniProt Q00613 1-529, looked up)
chain: B1 chain with I161M, L402P
notes: human heat shock transcription factor 1 (HSF1) with L402P in LZ4; Found by random mutagenesis in E. coli XL-1 Red; also called L402P mutant; source: S. cerevisiae PS145, mutant of plasmid pRS423GPD-hHSF1, in total protein extract
B4: human HSF1 M161I, expressed in hsf1-/- mouse embryonic fibroblasts (natural protein, UniProt Q00613 1-529, looked up)
chain: B1 chain
notes: human heat shock transcription factor 1 (HSF1) with M161I in LZ1-3; also called M161I mutant; source: hsf1-/- MEFs, transfected, in protein extract
B5: human HSF1 H179Y, expressed in hsf1-/- mouse embryonic fibroblasts (natural protein, UniProt Q00613 1-529, looked up)
chain: B1 chain with I161M, H179Y
notes: human heat shock transcription factor 1 (HSF1) with H179Y between LZ1/2 and LZ3; also called H179Y mutant; source: hsf1-/- MEFs, transfected, in protein extract
B6: human HSF1 K178E, expressed in yeast (natural protein, UniProt Q00613 1-529, looked up)
chain: B1 chain with I161M, K178E
notes: human heat shock transcription factor 1 (HSF1) with K178E between LZ1/2 and LZ3; Found by random mutagenesis in E. coli XL-1 Red; also called K178E mutant; source: S. cerevisiae PS145, mutant of plasmid pRS423GPD-hHSF1, in total protein extract
B7: human HSF1 L189P, expressed in yeast (natural protein, UniProt Q00613 1-529, looked up)
chain: B1 chain with I161M, L189P
notes: human heat shock transcription factor 1 (HSF1) with L189P in LZ3; Found by random mutagenesis in E. coli XL-1 Red; also called L189P HSF1 mutant; source: S. cerevisiae PS145, mutant of plasmid pRS423GPD-hHSF1, in total protein extract
B8: human HSF1 H179Y, expressed in yeast (natural protein, UniProt Q00613 1-529, looked up)
chain: B1 chain with I161M, H179Y
notes: human heat shock transcription factor 1 (HSF1) with H179Y between LZ1/2 and LZ3; Found by random mutagenesis in E. coli XL-1 Red; also called H179Y mutant; source: S. cerevisiae PS145, mutant of plasmid pRS423GPD-hHSF1, in total protein extract
B9: human HSF1 K178E, expressed in hsf1-/- mouse embryonic fibroblasts (natural protein, UniProt Q00613 1-529, looked up)
chain: B1 chain with I161M, K178E
notes: human heat shock transcription factor 1 (HSF1) with K178E between LZ1/2 and LZ3; also called K178E mutant; source: hsf1-/- MEFs, transfected, in protein extract
B10: human HSF1 L189P, expressed in hsf1-/- mouse embryonic fibroblasts (natural protein, UniProt Q00613 1-529, looked up)
chain: B1 chain with I161M, L189P
notes: human heat shock transcription factor 1 (HSF1) with L189P in LZ3; also called L189P HSF1 mutant; source: hsf1-/- MEFs, transfected, in protein extract

Experiments:
[1] = target: wild-type human HSF1, expressed in hsf1-/- mouse embryonic fibroblasts (human) (UniProt Q00613); test: cross-linking; EGS cross-linking of extracts of transfected hsf1-/- MEFs, without stress and after heat stress; immunoblot for HSF1
[2] = target: the molecule itself; test: cross-linking; EGS cross-linking of total protein extracts of yeast PS145 grown on galactose medium; SDS-PAGE and immunoblot with an HSF1-specific antibody
[3] = target: the molecule itself; test: cross-linking; EGS cross-linking of extracts of transfected hsf1-/- MEFs, without stress and after heat stress; immunoblot for HSF1

Molecule | stoichiometry N [2] | stoichiometry N [3] | further results
wild-type human HSF1, expressed in hsf1-/- mouse embryonic fibroblasts (from UniProt Q00613 1-529) (natural protein) | – | – | stoichiometry N [1]: 3
B1 | 3 | – | –
B2 | – | 3 | –
B3 | 3 | – | –
B4 | – | 3 | –
B5 | – | 3 | –
B6 | 3 | – | –
B7 | 3 | – | –
B8 | 3 | – | –
B9 | – | 3 | –
B10 | – | 3 | –
